Results from patent US20250129156A1 (AKESO BIOPHARMA, published 2025).

What was measured:
TGF-β1 [1] = target: T1, TGF-β1 (human, UniProt P01137 279-390); assay: competition ELISA vs TGF-βRII-His-Biotin 0.01 µg/mL on coated TGF-β1
T1 construct: Bought protein; also called human TGF-β1; TGF-β1 protein

TGF-β1 [2] = target: T1, TGF-β1; assay: indirect ELISA, TGF-β1 coated at 1 µg/mL
TGF-β2 = target: T2, TGF-β2 (UniProt P61812 303-414); assay: indirect ELISA, TGF-β2 coated at 2 µg/mL
T2 construct: Bought protein; also called TGF-β2 protein
T2 sequence (looked up): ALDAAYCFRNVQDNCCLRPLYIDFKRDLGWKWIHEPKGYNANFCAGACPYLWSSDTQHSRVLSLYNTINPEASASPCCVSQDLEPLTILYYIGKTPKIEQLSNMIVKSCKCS

B1: TGF-βRII-mFc (Fc fusion, UniProt P37173 23-159, looked up, not shown: a dimerising Fc or GST)
chain: TIPPHVQKSVNNDMIVTDNNGAVKFPQLCKFCDVRFSTCDNQKSCMSNCSITSICEKPQEVCVAVWRKNDENITLETVCHDPKLPYHDFILEDAASPKCIMKEKKKPGETFFMCSCSSDECNDNIIFSEEYNTSNPD
notes: also called TGF-βR2-mFc
- EC50 (TGF-β1 [1]): 6.47 nM
- EC50 (TGF-β1 [2]): 0.356 nM
- EC50 (TGF-β2): 1.03 nM
